The source of these data is US8404647B2, “Peptidylarginine deiminase (PAD) inhibitors” (Chiralix B.V., priority 2008, dated 2013).

One assay concerns the target PAD4 (Homo sapiens, UniProt Q9UM07). Briefly: Conversion (R to Cit) of substrate peptides by PAD4, mass spectrometry. The format is biochemical. The note with it: for Conversion (%): PAD4; for Conversion: Table 7, PAD4, test system with 3 times less enzyme; for Conversion by PAD4 (%): Table 10. The source says: From previous studies it was known that D-S-Q-F-A-F-R-G-A-S-A-S-D (designated here as L1: SEQ ID NO: 11) is a substrate for PAD2 and PAD 4. To obtain better substrates, and subsequently powerful inhibitors, we intended to identify structural elements that improve substrate properties. A set of 152 individual analog peptides was generated, each differing from L1 by one amino acid at one of the positions −4 to −1 or 1 to 4.
In Table 3 the conversion of each analog (R to Cit conversion) is depicted. Values of the analogs relate to the conversion of the analog compared to the conversion of L1 under standard conditions (100 means a conversion equal to L1, 50 means conversion of 50% of that of L1, 175 means conversion of 175% of that of L1). Numbers above 100 thus relate to amino acid substitutions that improve substrate properties.
Peptides of table 4 are represented by the following sequences SEQ ID NO: 22-31 and 33-46. Control peptide are represented by the following sequences SEQ ID NO: 11 as control L1 and SEQ ID NO: 32 as control L2. Unfortunately, a substantial number of designed peptides were too polar to be analyzed on our LC-MS system (indicated in Table 4 as n.t., not trapped on the column). We therefore also generated and tested these peptides containing two additional N-terminal F-residues to increase hydrophobicity. In this form peptides were trapped on the column and could be analyzed (see Table 5).
Based on the above results we designed 20 peptides containing multiple amino acids that improve substrate properties (see Table 7). The indicated peptides were synthesized and tested in order to identify the best substrate from this group. Here we used a test system with less enzyme (3 times less) compared to the experiments described above.
(§1) Conversion of arginine into citrulline in the substrate peptides by PAD2 or PAD4 using mass spectrometry was performed as follows. A candidate substrate peptide was incubated with a PAD as indicated for several hours at 37° C. The reaction was quenched by the addition with acetic acid. A sample was analysed on a Qtof mass spectrometer (Micromass, UK) and the mass spectrum was compared with that of the same peptide not treated with PAD. Normally, 2^+- and 3^+-ions are detected. The conversion (ΔM=0.98 Da) was calculated on the 2^+- and 3^+-ions individually, and subsequently averaged taking into account the relative peak height of the 2^+- and 3^+-signals (see FIG. 5).

The target of another assay is PAD2 (Homo sapiens, UniProt Q9Y2J8). Briefly: Conversion (R to Cit) of substrate peptides by PAD2, mass spectrometry. Format: biochemical. Particulars: for Conversion by PAD2 (%): Table 10; for Conversion (%): Table 9, PAD2. How it is done:
In a similar fashion as for PAD4 we identified improved peptide substrates for PAD2. Again L1 was used as a lead compound. The set of 152 peptides from Table 3 was used and testing was performed as described before.
as §1

The mark [1] stands for this setting: Table 5, peptides with two additional N-terminal F-residues.

Marks after values point to notes of the source that are not given here. Ends that are not written are not given here.

Sequence of PAD2 (Q9Y2J8 whole entry): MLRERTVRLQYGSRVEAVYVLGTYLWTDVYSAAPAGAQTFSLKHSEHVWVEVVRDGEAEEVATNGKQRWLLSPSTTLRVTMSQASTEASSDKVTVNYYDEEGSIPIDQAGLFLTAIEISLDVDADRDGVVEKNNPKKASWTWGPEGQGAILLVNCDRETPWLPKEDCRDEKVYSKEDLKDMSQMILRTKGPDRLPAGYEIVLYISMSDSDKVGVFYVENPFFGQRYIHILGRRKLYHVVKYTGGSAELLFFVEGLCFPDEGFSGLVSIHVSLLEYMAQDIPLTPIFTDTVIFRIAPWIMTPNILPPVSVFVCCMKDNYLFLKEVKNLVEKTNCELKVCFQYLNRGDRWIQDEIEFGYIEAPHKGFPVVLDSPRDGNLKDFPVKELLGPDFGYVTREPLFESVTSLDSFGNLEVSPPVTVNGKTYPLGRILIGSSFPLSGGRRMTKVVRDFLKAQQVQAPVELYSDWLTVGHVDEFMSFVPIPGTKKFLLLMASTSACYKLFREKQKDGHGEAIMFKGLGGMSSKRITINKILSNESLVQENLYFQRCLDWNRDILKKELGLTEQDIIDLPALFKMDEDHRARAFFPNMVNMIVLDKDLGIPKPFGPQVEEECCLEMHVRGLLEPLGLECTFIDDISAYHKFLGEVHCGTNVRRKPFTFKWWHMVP
Sequence of PAD4 (Q9UM07 whole entry): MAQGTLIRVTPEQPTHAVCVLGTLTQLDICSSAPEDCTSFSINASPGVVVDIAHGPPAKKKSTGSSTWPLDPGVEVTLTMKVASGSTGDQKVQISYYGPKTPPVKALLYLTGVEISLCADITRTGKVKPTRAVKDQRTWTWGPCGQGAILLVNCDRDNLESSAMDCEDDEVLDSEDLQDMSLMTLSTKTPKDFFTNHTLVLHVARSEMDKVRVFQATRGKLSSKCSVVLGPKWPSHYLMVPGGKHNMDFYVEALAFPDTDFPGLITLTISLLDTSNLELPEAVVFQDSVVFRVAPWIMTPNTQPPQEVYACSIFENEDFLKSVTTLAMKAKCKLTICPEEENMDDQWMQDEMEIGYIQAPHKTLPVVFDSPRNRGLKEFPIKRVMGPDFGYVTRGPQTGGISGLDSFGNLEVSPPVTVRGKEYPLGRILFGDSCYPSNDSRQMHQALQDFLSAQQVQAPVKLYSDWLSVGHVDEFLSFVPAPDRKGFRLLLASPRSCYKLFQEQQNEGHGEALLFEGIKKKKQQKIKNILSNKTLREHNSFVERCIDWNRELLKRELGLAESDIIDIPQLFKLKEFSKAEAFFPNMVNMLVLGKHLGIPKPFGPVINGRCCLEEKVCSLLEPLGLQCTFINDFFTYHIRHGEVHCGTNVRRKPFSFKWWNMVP

With “D-S-K-K-H-D-R-D-F-L-Y-S-D (DSKKHDRDFLYSD; not fully specified (C-terminus); printed as D-S-K-K-H-D-R-D-F-L-Y-S-D) [Peptide 0608-31]”, the “Conversion (%)” value with PAD4 (Table 4, 13-mer peptides) was 100% (=L2). For the same substance, in the assay with PAD4, the Conversion is on record as 45 (=L2) and the “Conversion by PAD4 (%)” value is 58(=L2) %. Further, the “conversion of L2 analogs by PAD4” value with PAD4 (relative to conversion of L2 (L2 = 100), single substitution at positions -4 to 4) turned out to be 100%. In the assay with PAD2, the “Conversion by PAD2 (%)” value was 84(=L2) %.
For “D-S-K-H-K-S-R-D-F-V-Y-S-D (DSKHKSRDFVYSD; not fully specified (C-terminus); printed as D-S-K-H-K-S-R-D-F-V-Y-S-D) [Peptide 0608-27]”, in the assay with PAD4, the “Conversion by PAD4 (%)” value stood at 69%. Moreover, in the assay with PAD2, the “Conversion by PAD2 (%)” value was 94%.
In the case of “D-S-K-H-L-S-R-E-W-M-W-S-D (DSKHLSREWMWSD; not fully specified (C-terminus); printed as D-S-K-H-L-S-R-E-W-M-W-S-D) [Peptide 0608-24]”, in the assay with PAD4 (Table 4, 13-mer peptides), the “Conversion (%)” value came out at 90%. Moreover, the “Conversion by PAD4 (%)” value in the assay with PAD4 was 54%. For the same substance, the “Conversion by PAD2 (%)” value with PAD2 is recorded as 95%.
For “D-S-K-K-Y-D-R-D-F-L-W-S-D (DSKKYDRDFLWSD; not fully specified (C-terminus); printed as D-S-K-K-Y-D-R-D-F-L-W-S-D) [Peptide 0708-29]”, in the assay with PAD4, the Conversion worked out at 61 and the “Conversion by PAD4 (%)” value was 76%. The “Conversion by PAD2 (%)” value with PAD2 amounted to 92%.
Take “F-F-D-S-H-K-F-D-R-D-F-I-Y-S-D (FFDSHKFDRDFIYSD) [Peptide 0612-45]”: the “Conversion (%)” value with PAD4 (setting [1]) was 100%. For the same substance, the “Conversion by PAD4 (%)” value with PAD4 is 94%. Further, the “Conversion by PAD2 (%)” value in the assay with PAD2 is listed as 97 ** %.
The like results for “F-F-D-S-K-H-K-S-R-D-F-V-Y-S-D (FFDSKHKSRDFVYSD) [Peptide 0612-29]” were, in that order, 100%, 77% and 92%.
The like results for “F-F-D-S-K-H-F-D-R-E-W-I-W-S-D (FFDSKHFDREWIWSD) [Peptide 0612-30]” were, in that order, 100%, 89% and 94 ** %.
For the substance “F-F-D-S-K-H-L-S-R-E-W-M-W-S-D (FFDSKHLSREWMWSD) [Peptide 0612-26]”, the “Conversion (%)” value with PAD4 (setting [1]) turned out to be 100%. Besides, the “Conversion by PAD4 (%)” value with PAD4 is on record as 73%. The “Conversion by PAD2 (%)” value in the assay with PAD2 is reported as 97%.
Consider “D-S-K-H-F-H-R-D-F-I-Y-S-D (DSKHFHRDFIYSD; not fully specified (C-terminus); printed as D-S-K-H-F-H-R-D-F-I-Y-S-D) [Peptide 0608-23]”, for which the “Conversion by PAD4 (%)” value with PAD4 was 69%. Also, the “Conversion by PAD2 (%)” value in the assay with PAD2 is recorded as 94%.
“F-F-D-S-H-K-W-H-R-D-F-F-Y-S-D (FFDSHKWHRDFFYSD) [Peptide 0612-37]”: in the assay with PAD4 (setting [1]), the “Conversion (%)” value is recorded as 100%. Also, in the assay with PAD4, the “Conversion by PAD4 (%)” value amounted to 88%. Also, in the assay with PAD2, the “Conversion by PAD2 (%)” value is recorded as 96 ** %.
The like results for “F-F-D-S-H-K-K-S-R-E-Y-V-F-S-D (FFDSHKKSREYVFSD) [Peptide 0612-44]” were, in that order, 100%, 58% and 100%.
For the substance “D-S-K-W-H-H-R-G-H-L-Y-S-D (DSKWHHRGHLYSD) [Peptide 0708-31]”, in the assay with PAD4, the Conversion was 52 and the “Conversion by PAD4 (%)” value was determined as 71%. The “Conversion by PAD2 (%)” value in the assay with PAD2 turned out to be 96%.
Regarding “D-S-H-K-H-S-R-E-W-L-W-S-D (DSHKHSREWLWSD; not fully specified (C-terminus); printed as D-S-H-K-H-S-R-E-W-L-W-S-D) [Peptide 0608-36]”, in the assay with PAD4 (Table 4, 13-mer peptides), the “Conversion (%)” value stood at 90%. Further, in the assay with PAD4, the “Conversion by PAD4 (%)” value amounted to 51%. For the same substance, in the assay with PAD2, the “Conversion by PAD2 (%)” value came out at 97%.
Turning to “D-S-K-F-A-F-R-G-G-I-A-S-D (DSKFAFRGGIASD; not fully specified (C-terminus); printed as D-S-K-F-A-F-R-G-G-I-A-S-D) [Peptide 0735-41]”, in the assay with PAD4, the “Conversion by PAD4 (%)” value is 25%. Further, in the assay with PAD2, the “Conversion (%)” value came to 90% and the “Conversion by PAD2 (%)” value was found to be 90%.
Take “F-F-D-S-K-K-K-H-R-E-W-V-W-S-D (FFDSKKKHREWVWSD) [Peptide 0612-34]”: the “Conversion (%)” value with PAD4 (setting [1]) was determined as 100%. Besides, the “Conversion by PAD4 (%)” value with PAD4 is given as 76%. Also, the “Conversion by PAD2 (%)” value with PAD2 is 99%.
Turning to “D-S-K-K-F-D-R-G-H-L-Y-S-D (DSKKFDRGHLYSD; not fully specified (C-terminus); printed as D-S-K-K-F-D-R-G-H-L-Y-S-D) [Peptide 0708-30]”, in the assay with PAD4, the Conversion was 63 and the “Conversion by PAD4 (%)” value is listed as 80%. Besides, the “Conversion by PAD2 (%)” value with PAD2 is on record as 90%.
On to “D-S-H-K-F-D-R-D-F-I-Y-S-D (DSHKFDRDFIYSD; not fully specified (C-terminus); printed as D-S-H-K-F-D-R-D-F-I-Y-S-D) [Peptide 0608-43]”, for which the “Conversion (%)” value with PAD4 (Table 4, 13-mer peptides) stood at 100%. For the same substance, the “Conversion by PAD4 (%)” value with PAD4 came out at 79%. The “Conversion by PAD2 (%)” value in the assay with PAD2 is given as 90 ** %.
Regarding “D-S-H-K-W-H-R-D-F-F-Y-S-D (DSHKWHRDFFYSD; not fully specified (C-terminus); printed as D-S-H-K-W-H-R-D-F-F-Y-S-D) [Peptide 0608-35]”, in the assay with PAD4, the “Conversion by PAD4 (%)” value was 73%. In addition, the “Conversion by PAD2 (%)” value in the assay with PAD2 is 92%.
As for “D-S-K-K-L-H-R-D-H-M-E-S-D (DSKKLHRDHMESD; not fully specified (C-terminus); printed as D-S-K-K-L-H-R-D-H-M-E-S-D) [Peptide 0608-29]”, in the assay with PAD4, the “Conversion by PAD4 (%)” value is reported as 65%. Also, in the assay with PAD2, the “Conversion by PAD2 (%)” value was 90%.
“F-F-D-S-H-K-H-S-R-E-W-L-W-S-D (FFDSHKHSREWLWSD) [Peptide 0612-38]”: the “Conversion (%)” value with PAD4 (setting [1]) is on record as 100%. For the same substance, in the assay with PAD4, the “Conversion by PAD4 (%)” value came out at 72%. Further, the “Conversion by PAD2 (%)” value in the assay with PAD2 was found to be 96%.
Turning to “D-S-K-W-Y-H-R-N-K-F-W-S-D (DSKWYHRNKFWSD) [Peptide 0735-27]”, the “Conversion by PAD4 (%)” value with PAD4 turned out to be 45%. Besides, in the assay with PAD2, the “Conversion (%)” value amounted to 98% and the “Conversion by PAD2 (%)” value came to 98%.
In the case of “D-S-K-K-H-F-R-D-K-L-Y-S-D (DSKKHFRDKLYSD; not fully specified (C-terminus); printed as D-S-K-K-H-F-R-D-K-L-Y-S-D) [Peptide 0708-22]”, in the assay with PAD4, the Conversion worked out at 43 and the “Conversion by PAD4 (%)” value worked out at 37%. Further, in the assay with PAD2, the “Conversion by PAD2 (%)” value is 92%.
Take “D-S-K-F-H-F-R-Y-A-V-A-S-D (DSKFHFRYAVASD; not fully specified (C-terminus); printed as D-S-K-F-H-F-R-Y-A-V-A-S-D) [Peptide 0735-35]”: in the assay with PAD4, the “Conversion by PAD4 (%)” value is on record as under 20%. Besides, in the assay with PAD2, the “Conversion (%)” value came out at 92% and the “Conversion by PAD2 (%)” value is given as 92%.
On to “F-F-D-S-K-K-F-S-R-D-H-I-E-S-D (FFDSKKFSRDHIESD) [Peptide 0612-35]”, for which the “Conversion (%)” value with PAD4 (setting [1]) is given as 97%. The “Conversion by PAD4 (%)” value with PAD4 was 63%. Besides, in the assay with PAD2, the “Conversion by PAD2 (%)” value is given as 90%.
For “D-S-K-K-H-D-R-D-H-L-W-S-D (DSKKHDRDHLWSD; not fully specified (C-terminus); printed as D-S-K-K-H-D-R-D-H-L-W-S-D) [Peptide 0708-20]”, in the assay with PAD4, the Conversion is reported as 62 and the “Conversion by PAD4 (%)” value was 80%. Besides, the “Conversion by PAD2 (%)” value with PAD2 is reported as 95%.
The like results for “D-S-K-K-F-D-R-D-H-L-Y-S-D (DSKKFDRDHLYSD; not fully specified (C-terminus); printed as D-S-K-K-F-D-R-D-H-L-Y-S-D) [Peptide 0708-15]” were, in that order, 51, 77% and 90%.
In the case of “D-S-K-K-K-H-R-E-W-V-W-S-D (DSKKKHREWVWSD; not fully specified (C-terminus); printed as D-S-K-K-K-H-R-E-W-V-W-S-D) [Peptide 0608-32]”, the “Conversion by PAD4 (%)” value in the assay with PAD4 is listed as 72%. Further, the “Conversion by PAD2 (%)” value in the assay with PAD2 was determined as 100%.
Take “D-S-K-K-F-H-R-D-F-L-Y-S-D (DSKKFHRDFLYSD; not fully specified (C-terminus); printed as D-S-K-K-F-H-R-D-F-L-Y-S-D) [Peptide 0708-25]”: in the assay with PAD4, the Conversion was 56 and the “Conversion by PAD4 (%)” value was 64%. The “Conversion by PAD2 (%)” value with PAD2 was 97%.
